Assay [1] addresses T1, IL-13 (human IL-13, preparation not specified) (human, UniProt P35225 35-146, limits assumed). The experiment in a line: cell-based or functional assay.
The next assay deals with T2, mouse IL-13 (mouse, UniProt P20109 21-131, limits assumed).
T2 sequence (looked up): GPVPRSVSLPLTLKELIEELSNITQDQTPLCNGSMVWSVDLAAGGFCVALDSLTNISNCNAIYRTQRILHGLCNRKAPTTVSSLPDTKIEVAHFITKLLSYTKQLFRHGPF
The experiment in a line: ELISA, epitope mapping with chimeras. (In general: In an ELISA, binding on a coated surface is turned into a signal by an enzyme label.)

The target in assay [2] is T3, Human IL-13-Mouse IL-13 Helix D chimera (human with mouse Helix D).
T3 construct: also called Mo HelixD
T3 chain: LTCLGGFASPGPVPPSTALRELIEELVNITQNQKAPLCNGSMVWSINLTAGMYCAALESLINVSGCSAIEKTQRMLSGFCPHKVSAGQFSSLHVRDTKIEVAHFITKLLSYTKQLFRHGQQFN
The experiment in a line: ELISA on secreted chimeric IL-13.

Assay [3] addresses T4, native human IL-13 (human, UniProt P35225 25-146).
T4 construct: mature; Secreted by stimulated PBMCs; also called hIL-13 (KinExA)
Briefly: KinExA, Kinetic Direct method. (Kinetic exclusion samples the free partner from a solution-phase mixture.)

Assay [4] addresses T4, native human IL-13. The experiment in a line: KinExA, Kinetic inject method.
Assay [5] concerns the target T4, native human IL-13. The experiment in a line: KinExA equilibrium in solution.
Assay [6] concerns the target T5, native macaque monkey IL-13 (macaque monkey, UniProt Q0PW92 19-132).
T5 construct: also called native macaque IL-13
The experiment in a line: KinExA equilibrium in solution.

Assay [7] addresses T4, native human IL-13. The experiment in a line: KinExA, Kinetic Direct method (KD repeated from Table 10).
The target in assay [8] is T4, native human IL-13. Briefly: KinExA, Kinetic Direct method; calculated from kon and KD.
Assay [9] concerns the target T4, native human IL-13. The experiment in a line: KinExA, Kinetic inject method (KD repeated from Table 10).
Assay [10] deals with T4, native human IL-13. Briefly: KinExA, Kinetic inject method; calculated from kon and KD.
Assay [11] addresses T6, Recombinant Human IL-13 (R&D 213-IL-005) (human, UniProt P35225 35-146). Briefly: Biacore 2000, mAb captured on goat anti-human surface, IL-13 (R&D) injected, 1:1 fit.
In assay [12] the target is T7, Human IL-13-rabbit Fc fusion protein (human).
T7 construct: also called IL-13-RbFc; IL-13RbFc
The experiment in a line: ELISA on plates coated with IL-13RbFc, antibody without soluble competitor, detection rabbit anti Hu IgG Fc HRP.

Assay [13] deals with T1, IL-13 (human IL-13, preparation not …). The experiment in a line: cell-based or functional assay. This is another data set of the same source.
Assay [14] concerns the target T6, Recombinant Human IL-13 (R&D 213-IL-005). Briefly: Biacore 2000, mAb captured on goat anti-human surface, IL-13 (R&D) injected, 1:1 fit; first run.
Assay [15] shares this target. Briefly: Biacore 2000, mAb captured on goat anti-human surface, IL-13 (R&D) injected, 1:1 fit; second run. For orientation: Surface plasmon resonance follows binding to a sensor surface in real time, without labels.

Substitutions are numbered along the chain they refer to.

Consider seven molecules from patent publication US20220281966A1 (Amgen, published 2022).

T6 sequence (P35225 35-146 limits assumed): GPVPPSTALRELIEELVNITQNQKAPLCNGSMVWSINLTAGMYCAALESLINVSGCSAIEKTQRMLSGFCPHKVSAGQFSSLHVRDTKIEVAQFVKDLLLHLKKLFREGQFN
T1 sequence (P35225 35-146 limits assumed): as above
T7 sequence (chain, as listed by the source limits assumed): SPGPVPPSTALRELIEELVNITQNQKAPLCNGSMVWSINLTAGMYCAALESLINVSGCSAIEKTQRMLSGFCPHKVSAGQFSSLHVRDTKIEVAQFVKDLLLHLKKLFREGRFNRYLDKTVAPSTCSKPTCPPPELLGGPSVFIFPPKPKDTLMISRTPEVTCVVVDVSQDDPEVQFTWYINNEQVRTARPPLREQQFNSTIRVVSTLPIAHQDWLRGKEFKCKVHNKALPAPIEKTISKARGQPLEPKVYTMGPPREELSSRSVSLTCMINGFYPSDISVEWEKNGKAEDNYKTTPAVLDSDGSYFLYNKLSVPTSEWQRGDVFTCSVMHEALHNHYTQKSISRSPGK
T5 sequence (Q0PW92 entry or part of it limits assumed): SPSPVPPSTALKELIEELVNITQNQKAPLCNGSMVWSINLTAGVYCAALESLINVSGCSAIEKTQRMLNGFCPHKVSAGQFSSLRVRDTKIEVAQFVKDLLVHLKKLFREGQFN

B1: antibody 353 (antibody, V domains shown)
VH: QVQLQESGPGLVKPSETLSLTCTVSGGSISTYYWSWIRQPPGKGLEWIGYIYYSGSTNYNPSLKSRVTISVDTSKNQFSLKLSSVTAADTAVYYCARDGGHYWDDAFDIWGQGTMVTVSS
VL: DIQMTQSPSSLSASVGDRVTITCRASQGIRNDLDWYQQKPGKAPKRLIYDASSLQSGVPSRFSGSGSGTEFTLTISSLQPEDFATYYCLQHDSYPFTFGPGTKVDIK
Take B1: in assay [1], the “IC50, Eotaxin-1 assay, Average” value is 0.101 nM; the “IC50, Eotaxin-1 assay, n = 1” value was found to be 0.099 nM; the “IC50, Eotaxin-1 assay, n = 2” value worked out at 0.123 nM; the “IC50, Eotaxin-1 assay, n = 3” value turned out to be 0.08 nM.

B2: antibody 785 (antibody, V domains shown)
VH: not shown
VL: SYVLTQPPSVSVAPGQTARITCGGNNIGNKIVHWYQQKPGQAPVLVVYDDSDRPSGIPERFSGSNSGNTATLTISRVEAGDEADYYCQVWDSSSDHVVFGGGTKLTVL
notes: lambda light chain
In the case of B2, in assay [1], the “IC50, Eotaxin-1 assay, Average” value amounted to 0.176 nM; the “IC50, Eotaxin-1 assay, n = 1” value came out at 0.223 nM; the “IC50, Eotaxin-1 assay, n = 2” value stood at 0.144 nM; the “IC50, Eotaxin-1 assay, n = 3” value was found to be 0.16 nM. Besides, the binding result with mouse IL-13 was “no binding”. For the same molecule, in [2], the binding result is “no binding”.

B3: antibody 11.18.3 (antibody, V domains shown)
VH: QVQLVESGGGVVQPGRSLRLSCVASGFTFSSYDMHWVRQAPGKGLEWVAVIWYDGSNKYYADSVQGRFTISRDNSKNTLYLQMNSLRAEDTAVYYCTSEDSSGWYDGWFDPWGQGTLVTVSS
VL: DIQMTQSPSSLSASVGDRVTITCRASQGISNYLAWYQQKPGKVPKVLIYAASTLQSGVPSRFSGSGSGTDFTLTISSLQPEDVATYYCQKYNSAPFTFGPGTKVDIK
With B3, in assay [1], the “IC50, Eotaxin-1 assay, Average” value is 0.245 nM; the “IC50, Eotaxin-1 assay, n = 1” value was found to be 0.213 nM; the “IC50, Eotaxin-1 assay, n = 2” value came to 0.304 nM; the “IC50, Eotaxin-1 assay, n = 3” value amounted to 0.217 nM.

B4: antibody 623 (antibody, V domains shown)
VH: EVQLVESGGGLVKPGGSLRLSCAASGFTFSNAWMSWVRQAPGKGLEWVGRIRSEIDGGTTNYAAPVKGRFTISRDDSKNTLYLQMNSLKTEDTAVYYCATDQVGAYYGDYYGMDVWGQGTLVTVSS
VL: SYELTQPPSVSVSPGQTARITCSGDALPEKYAYWYQQKSGQAPVLVIYEDSKRPSGIPERFSGSSSGTMATLTISGAQVEDEADYYCHSTDSSGNHGVFGGGTKLTVL
What is called kon is the second-order rate constant of association. What is called Kd is the constant that tells how readily two partners part at equilibrium. As a reminder, the koff is a measure of how fast the partners let go of each other. Consider B4, for which, in assay [1], the “IC50, Eotaxin-1 assay, Average” value stood at 0.036 nM. Further, the “IC50, Eotaxin-1 assay, n = 1” value in [1] amounted to 0.031 nM. Besides, the “IC50, Eotaxin-1 assay, n = 2” value in assay [1] is 0.04 nM. For the same molecule, in assay [1], the “IC50, Eotaxin-1 assay, n = 3” value was 0.035 nM. In addition, the kon with native human IL-13 [3] amounted to 1.1e+07 M⁻¹ s⁻¹; with native human IL-13 [4], 1.5e+07 M⁻¹ s⁻¹; in assay [11], 4.9e+06 M⁻¹ s⁻¹. In addition, the Kd is 0.024 nM in the assay with native human IL-13 [5]; 0.037 nM in assay [6]; 0.024 nM with native human IL-13 [7]; 0.024 nM with native human IL-13 [9]; 0.052 nM in assay [11]. In addition, the binding result with mouse IL-13 was “no binding”; in assay [12], “binds”. The koff with native human IL-13 [8] was 0.00027 s⁻¹; with native human IL-13 [10], 0.00036 s⁻¹; in assay [11], 0.00025 s⁻¹.

B5: antibody 643 (antibody, V domains shown)
VH: B4 VH with K89R
VL: B4 VL
notes: also called Ab 643; mAb 643
For the molecule B5, in assay [1], the “IC50, Eotaxin-1 assay, Average” value was 0.035 nM; the “IC50, Eotaxin-1 assay, n = 1” value was 0.044 nM; the “IC50, Eotaxin-1 assay, n = 2” value turned out to be 0.028 nM; the “IC50, Eotaxin-1 assay, n = 3” value was determined as 0.033 nM. The “IC50 (read off the curve)” value in [13] is around 0.03 nM. This molecule also registered a Kd with native human IL-13 [5] of 0.013 nM. Besides, in the assay with mouse IL-13, the binding result is reported as “no binding”. Further, in assay [11], the Kd stood at 0.066 nM, the koff is 0.00029 s⁻¹ and the kon is 4.4e+06 M⁻¹ s⁻¹.

B6: antibody 602 (antibody, V domains shown)
VH: B4 VH with E54K, T60I
VL: B4 VL with S51T, H88Y
notes: also called mAb 602
Turning to B6, in assay [1], the “IC50, Eotaxin-1 assay, Average” value amounted to 0.066 nM; the “IC50, Eotaxin-1 assay, n = 1” value was 0.08 nM; the “IC50, Eotaxin-1 assay, n = 2” value was 0.053 nM. Further, in the assay with mouse IL-13, the binding result is given as “no binding”. For the same molecule, in assay [11], the Kd was 0.172 nM, the koff worked out at 0.00051 s⁻¹ and the kon is 3e+06 M⁻¹ s⁻¹.

B7: antibody 693 (antibody, V domains shown)
VH: QVQLQESGPGLVKPSETLSLTCSVSGGSISSYYWSWIRQPAGKGLEWIGRIYMTGRTNYNSSLKSRVTMSIDTSKNQLSLKLSFMTAADTAVYYCARESGSSYSYDYWGQGTLVTVSS
VL: SYVLTQPPSVSVAPGQTARITCGGNNIGSKGVHWYQQKPGQAPVLVVYDDSDRPSGIPERFSGSNSGNTATLTISRVEAGDEADYYCQVWVSSSDHHVVFGGGTKLTVV
notes: also called sc693
On to B7, for which, in assay [1], the “IC50, Eotaxin-1 assay, Average” value was 0.054 nM; the “IC50, Eotaxin-1 assay, n = 1” value amounted to 0.038 nM; the “IC50, Eotaxin-1 assay, n = 2” value was 0.069 nM; the “IC50, Eotaxin-1 assay, n = 3” value worked out at 0.053 nM. Also, the binding result with mouse IL-13 is listed as “no binding”. In addition, the binding result in [2] is “no binding”. Further, in assay [14], the Kd turned out to be 0.189 nM, the koff is 0.00038 s⁻¹ and the kon was determined as 2e+06 M⁻¹ s⁻¹. In addition, in [15], the Kd stood at 0.109 nM, the koff was 0.00027 s⁻¹ and the kon is 2.5e+06 M⁻¹ s⁻¹.
